In patent US20080280833A1, “Therapeutic Peptides Derived from Urokinase Plasminogen Activator Receptor” (priority 2005, published 2008):

Molecular target: purified human αvβ3 integrin (Chemicon) (human) (UniProt P06756)
Assay: cell-free pull-down: 125I-suPAR + αvβ3 + uPA + D2A (5 µg), immunoprecipitation with LM609, densitometry

purified human αvβ3 integrin (Chemicon) (human), sequence (P06756 31-1048, form in doubt, chain 1 of 2): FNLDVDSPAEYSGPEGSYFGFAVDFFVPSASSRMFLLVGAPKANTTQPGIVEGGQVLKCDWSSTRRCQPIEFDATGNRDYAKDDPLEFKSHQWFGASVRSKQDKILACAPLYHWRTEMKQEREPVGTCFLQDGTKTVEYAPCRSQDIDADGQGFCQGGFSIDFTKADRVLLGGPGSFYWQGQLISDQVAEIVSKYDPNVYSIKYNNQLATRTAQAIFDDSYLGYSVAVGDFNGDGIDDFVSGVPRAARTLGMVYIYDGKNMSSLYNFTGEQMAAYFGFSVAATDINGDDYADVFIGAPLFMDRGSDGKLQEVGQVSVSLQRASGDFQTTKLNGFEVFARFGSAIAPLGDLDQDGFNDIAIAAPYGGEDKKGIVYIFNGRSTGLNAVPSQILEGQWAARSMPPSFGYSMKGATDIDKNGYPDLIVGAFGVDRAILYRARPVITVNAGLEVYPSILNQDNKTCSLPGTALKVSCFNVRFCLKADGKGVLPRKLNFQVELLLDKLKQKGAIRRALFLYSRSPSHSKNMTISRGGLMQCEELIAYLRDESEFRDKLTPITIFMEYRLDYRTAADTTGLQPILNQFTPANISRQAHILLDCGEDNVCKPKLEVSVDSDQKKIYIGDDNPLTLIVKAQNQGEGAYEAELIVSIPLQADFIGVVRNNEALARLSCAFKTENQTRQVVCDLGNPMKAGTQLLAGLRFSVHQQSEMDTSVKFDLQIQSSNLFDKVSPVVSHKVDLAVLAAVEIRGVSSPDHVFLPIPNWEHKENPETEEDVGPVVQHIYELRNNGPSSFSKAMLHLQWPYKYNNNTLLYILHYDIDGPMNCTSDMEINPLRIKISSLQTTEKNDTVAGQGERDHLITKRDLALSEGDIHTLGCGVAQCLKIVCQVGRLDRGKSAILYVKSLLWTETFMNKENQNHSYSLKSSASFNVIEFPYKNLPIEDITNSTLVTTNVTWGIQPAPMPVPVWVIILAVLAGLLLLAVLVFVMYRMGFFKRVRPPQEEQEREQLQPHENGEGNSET
purified human αvβ3 integrin (Chemicon) (human), sequence (P05106 27-788, form in doubt, chain 2 of 2, further chain): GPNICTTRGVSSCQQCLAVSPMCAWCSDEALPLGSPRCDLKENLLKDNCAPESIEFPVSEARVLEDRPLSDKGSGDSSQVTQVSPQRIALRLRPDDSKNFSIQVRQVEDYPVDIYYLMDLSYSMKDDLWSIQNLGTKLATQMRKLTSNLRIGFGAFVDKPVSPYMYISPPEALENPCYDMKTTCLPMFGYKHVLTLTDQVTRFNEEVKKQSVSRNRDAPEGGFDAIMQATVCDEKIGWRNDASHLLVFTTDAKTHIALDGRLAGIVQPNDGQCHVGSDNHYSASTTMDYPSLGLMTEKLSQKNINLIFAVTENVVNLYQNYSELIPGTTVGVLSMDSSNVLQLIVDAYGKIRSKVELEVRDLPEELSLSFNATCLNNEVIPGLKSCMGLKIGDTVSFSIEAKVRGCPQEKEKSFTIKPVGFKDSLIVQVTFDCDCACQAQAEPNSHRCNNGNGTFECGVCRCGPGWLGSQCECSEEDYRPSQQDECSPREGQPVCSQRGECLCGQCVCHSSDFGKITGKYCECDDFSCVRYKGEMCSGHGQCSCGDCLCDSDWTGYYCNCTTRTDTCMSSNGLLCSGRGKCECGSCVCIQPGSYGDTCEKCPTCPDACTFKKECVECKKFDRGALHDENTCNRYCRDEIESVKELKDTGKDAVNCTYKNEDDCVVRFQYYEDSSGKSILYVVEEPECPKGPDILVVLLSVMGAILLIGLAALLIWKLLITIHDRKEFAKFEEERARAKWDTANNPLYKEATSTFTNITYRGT

percent reduction of coimmunoprecipitated suPAR compared to uPA alone: 50%
Substance: peptide D2A, synthetic peptide of domain 2 of human uPAR (aa130-142)
